Experimental data as given in article PMC9860668.

Molecular target: rabbit muscle F-actin (rabbit) (UniProt P68135)
Test: single-molecule force spectroscopy (scanning force microscopy); Imp-PM19 or ∆D3 mutant covalently bound through a PEG crosslinker to the SFM tip; F-actin_(rabbit) with unlabeled phalloidin immobilised on poly-l-lysine mica; F-buffer pH 6.8; set point 800 pN; retraction speed 2 µm/s; 1000 curves; WLC fit

With “Imp-PM19-His (immunodominant membrane protein of 'Candidatus Phytoplasma mali' strain PM19, His-tagged) (natural protein)” the interaction force was 40 to 400 pN, the maximal work of adhesion was 4.5 to 5 aJ and the most frequently observed adhesion was 80 to 90 pN. The rupture force was 100 pN.
